This is an account of results in US20030203406.

Data set [1] addresses T1, MAS tripeptide (Met-Ala-Ser).
T1 chain: MAS

The target of data set [2] is T2, GGG tripeptide.
T2 chain: GGG

The target in data set [3] is T3, IGG tripeptide.
T3 chain: IGG

For data set [4], the target named is T4, MEG tripeptide.
T4 chain: MEG

The target of data set [5] is T5, MGG tripeptide.
T5 chain: MGG

B1: recombinant human MetAP-2 expressed in Sf9 insect cells (protein)
chain: AGVEEVAASGSHLNGDLDPDDREEGAASTAEEAAKKKRRKKKKSKGPSAAGEQEPDKESGASVDEVARQLERSALEDKERDEDDEDGDGDGDGATGKKKKKKKKKRGPKVQTDPPSVPICDLYPNGVFPKGQECEYPPTQDGRTAAWRTTSEEKKALDQASEEIWNDFREAAEAHRQVRKYVMSWIKPGMTMIEICEKLEDCSRKLIKENGLNAGLAFPTGCSLNNCAAHYTPNAGDTTVLQYDDICKIDFGTHISGRIIDCAFTVTFNPKYDTLLKAVKDATNTGIKCAGIDVRLCDVGEAIQEVMESYEVEIDGKTYQVKPIRNLNGHSIGQYRIHAGKTVPIVKGGEATRMEEGEVYAIETFGSTGKGVVHDDMECSHYMKNFDVGHVPIRLPRTKHLLNVINENFGTLAFCRRWLDRLGESKYLMALKNLCDLGIVDPYPPLCDIKGSYTAQFEHTILLRPTCKEVVSRGDDY
For orientation: Km means the substrate concentration at which the rate is half of its maximum. In general, kcat refers to the maximal rate divided by the concentration of active sites. Turning to B1, in data set [1], the Km is 0.3 mM and the kcat came out at 2.3 s⁻¹.

B2: recombinant human MetAP-3 purified from E. coli after thrombin cleavage of the NusA-6xHis tag (protein)
chain: SSPLNHIYLHKQSSSQQRRNFFFRRQRDISHSIVLPAAVSSAHPVPKHIKKPDYVTTGIVPDWGDSIEVKNEDQIQGLHQACQLARHVLLLAGKSLKVDMTTEEIDALVHREIISHNAYPSPLGYGGFPKSVCTSVNNVLCHGIPDSRPLQDGDIINIDVTVYYNGYHGDTSETFLVGNVDECGKKLVEVARRCRDEAIAACRAGAPFSVIGNTISHITHQNGFQVCPHFVGHGIGSYFHGHPEIWHHANDSDLPMEEGMAFTIEPIITEGSPEFKVLEDAWTVVSLDNQRSAQFEHTVLITSRGAQILTKLPHEA
With B2, the Cleaved result is recorded as “No” in data set [2]; “No” in data set [3]; “Yes” in data set [1]; “No” in data set [4]; “Yes” in data set [5]. For the same protein, the Vmax (Abs × 1000/min) (Abs × 1000/min) in data set [2] turned out to be 0.7; in data set [3], 3.1; in data set [1] it was 70; in data set [4] it was 1.1; in data set [5], 134. In addition, in data set [1], the Km was 0.6 mM. The kcat in data set [1] was 0.06 s⁻¹.
